Test results taken from patent US20250188176A1.

Target: canine IL-4RA (construct not given) (canine)
Test: SPR, combinatorial Fab-SASA clone

Binder	Kd [nM]	koff [s⁻¹]	kon [M⁻¹ s⁻¹]
AHF21170 (Fab, V domains shown, not shown: small tags and cut ends) VH: EVQLVESGGDLVKPGGSLRLSCVASGFTFRDYAMTWVRQAPGKGLQWVSLINGSGGKTYYADAVKGRFTISRDNAKNTLYLQMNSLRAEDTAVYYCAVDRLTKTIRPQYYGLWVWGQGTLVTVSS VL: DIVMTQTPLSLSVSPGETASISCRSSQSLTYSIGYNYLDWYLQKPGQSPQGLIYLGSKRASGVPDRFSGSGSGTDFTLRISRVEANDTGVYYCMQGLQSPLTFGQGTKLEIKR	0.94	0.000138	147000
AHF21171 (Fab, V domains shown, not shown: small tags and cut ends) VH: EVQLVESGGDLVKPGGSLRLSCVASGFTFRDYAMTWVRQAPGKGLQWVSLINGSGGKTYYADAVKGRFTISRDNAKNTLYLQMNSLRAEDTAVYYCAVDRLTKTIRPQYYGLWHWGQGTLVTVSS VL: DIVMTQTPLSLSVSPGETASISCRSSQSLLYSIGYNYLDWYLQKPGQSPQGLIYLGHKRASGVPDRFSGSGSGTDFTLRISRVEANDTGVYYCMQGLQSPLSFGQGTKLEIKR	0.47	0.000134	285000
AHF21172 (Fab, V domains shown, not shown: small tags and cut ends) VH: EVQLVESGGDLVKPGGSLRLSCVASGFTFRDYAMTWVRQAPGKGLQWVSLINGSGGKTYYADAVKGRFTISRDNAKNTLYLQMNSLRAEDTAVYYCAVDRLTKTIRPQYYGLWVWGQGTLVTVSS VL: DIVMTQTPLSLSVSPGETASISCRSSQSLLYSIGYNYLDWYLQKPGQSPQGLIYLGHKRASGVPDRFSGSGSGTDFTLRISRVEANDTGVYYCMQGLQSPLTFGQGTKLEIKR	0.74	0.000168	226000

Target: canine IL-4RA (construct not given) (canine)
Test: SPR, IL-4RA immobilised, periplasmic Fab

Binder	Improvement over parental [fold]	RU max [RU]	koff [s⁻¹]
FJ2246MP06G06 (Parental Fab of TB640_005) (Fab, V domains shown) VH: EVQLVESGGDLVKPGGSLRLSCVASGFTFRDYAMTWVRQAPGKGLQWVSLISGSGGKTYYADAVKGRFTISRDNAKNTLYLQMNSLRAEDTAVYYCAVDRLTKTIRPQYYGLWVWGQGTLVTVSS VL: DIVMTQTPLSLSVSPGETASISCRSSQSLLYSIGYNYLDWYLQKPGQSPQGLIYLGSKRASGVPDRFSGSGSGTDFTLRISRVEANDTGVYYCMQGLQSPLTFGQGTKLEIKR	1	105	0.00028
FJ2246MP05A04 (Fab, V domains shown) VH: EVQLVESGGDLVKPGGSLRLSCVASGLPFRDYAMTWVRQAPGKGLQWVSLISGSGGKTYYADAVKGRFTISRDNAKNTLYLQMNSLRAEDTAVYYCAVDRLTKTIRPQYYGLWVWGQGTLVTVSS VL: DIVMTQTPLSLSVSPGETASISCRSSQSLLYSIGYNYLDWYLQKPGQSPQGLIYLGSKRASGVPDRFSGSGSGTDFTLRISRVEANDTGVYYCMQGLQSPLTFGQGTKLEIKR	2	329	0.000142
FJ2246MP06F11 (Fab, V domains shown) VH: EVQLVESGGDLVKPGGSLRLSCVASGFTFRDYAMTWVRQAPGKGLQWVSLINGDGSKTYYADAVKGRFTISRDNAKNTLYLQMNSLRAEDTAVYYCAVDRLTKTIRPQYYGLWVWGQGTLVTVSS VL: DIVMTQTPLSLSVSPGETASISCRSSQSLLYSIGYNYLDWYLQKPGQSPQGLIYLGSKRASGVPDRFSGSGSGTDFTLRISRVEANDTGVYYCMQGLQSPLTFGQGTKLEIKR	2	196	0.000143
FJ2246MP05G01 (Fab, V domains shown) VH: EVQLVESGGDLVKPGGSLRLSCVASGFPFRDFAMTWVRQAPGKGLQWVSLISGSGGKTYYADAVKGRFTISRDNAKNTLYLQMNSLRAEDTAVYYCAVDRLTKTIRPQYYGLWVWGQGTLVTVSS VL: DIVMTQTPLSLSVSPGETASISCRSSQSLLYSIGYNYLDWYLQKPGQSPQGLIYLGSKRASGVPDRFSGSGSGTDFTLRISRVEANDTGVYYCMQGLQSPLTFGQGTKLEIKR	2	344	0.000142
